Test results from paper doi:10.1101/2021.10.20.465084 (bioRxiv, 2021).
Positions of bridges follow the written chain, without caps; N, C: chain ends. No end group written: not given here. *: point of attachment. Biotin = O=C1N[C@H]2[C@H](CS[C@H]2CCCCC(=O)*)N1; βAla = NCCC(=O)O

T1: Prefoldin from Pyrococcus horikoshii (PhPFD-α2β4 heterohexamer, 86.4 kDa) (Pyrococcus horikoshii, UniProt O58263 1-148; O58268 1-117, S98G)
T1 sequence 1: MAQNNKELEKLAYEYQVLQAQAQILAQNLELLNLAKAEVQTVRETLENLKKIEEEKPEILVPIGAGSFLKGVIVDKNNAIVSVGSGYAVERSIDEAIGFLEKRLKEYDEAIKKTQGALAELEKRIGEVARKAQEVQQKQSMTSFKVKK
T1 sequence 2: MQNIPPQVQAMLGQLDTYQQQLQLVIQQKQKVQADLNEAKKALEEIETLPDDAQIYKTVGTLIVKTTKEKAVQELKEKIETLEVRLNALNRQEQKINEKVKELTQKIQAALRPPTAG

B1: biotinylated IAPP (biotinyl-[β-Ala]-[β-Ala]-IAPP-NH2) (peptide)
peptide: {Biotin-βAla-βAla}-KCNTATCATQRLANFLVHSSNNFGAILSSTNVGSNTY-NH2
modifications: disulfide 2-7
SMILES: CC[C@H](C)[C@H](NC(=O)[C@H](C)NC(=O)CNC(=O)[C@H](Cc1ccccc1)NC(=O)[C@H](CC(N)=O)NC(=O)[C@H](CC(N)=O)NC(=O)[C@H](CO)NC(=O)[C@H](CO)NC(=O)[C@H](Cc1c[nH]cn1)NC(=O)[C@@H](NC(=O)[C@H](CC(C)C)NC(=O)[C@H](Cc1ccccc1)NC(=O)[C@H](CC(N)=O)NC(=O)[C@H](C)NC(=O)[C@H](CC(C)C)NC(=O)[C@H](CCCNC(=N)N)NC(=O)[C@H](CCC(N)=O)NC(=O)[C@@H](NC(=O)[C@H](C)NC(=O)[C@@H]1CSSC[C@H](NC(=O)[C@H](CCCCN)NC(=O)CCNC(=O)CCNC(=O)CCCC[C@@H]2SC[C@@H]3NC(=O)N[C@@H]32)C(=O)N[C@@H](CC(N)=O)C(=O)N[C@@H]([C@@H](C)O)C(=O)N[C@@H](C)C(=O)N[C@@H]([C@@H](C)O)C(=O)N1)[C@@H](C)O)C(C)C)C(=O)N[C@@H](CC(C)C)C(=O)N[C@@H](CO)C(=O)N[C@@H](CO)C(=O)N[C@H](C(=O)N[C@@H](CC(N)=O)C(=O)N[C@H](C(=O)NCC(=O)N[C@@H](CO)C(=O)N[C@@H](CC(N)=O)C(=O)N[C@H](C(=O)N[C@@H](Cc1ccc(O)cc1)C(N)=O)[C@@H](C)O)C(C)C)[C@@H](C)O

How the values were obtained:
[1] = target: T1, Prefoldin from Pyrococcus horikoshii …; assay: NMR titration
[2] = target: T1, Prefoldin from Pyrococcus horikoshii …; assay: BLI

Row | Binder | Kd [1] [µM] | koff [1] [s⁻¹] | Kd [2] [µM]
1 | KCNTATCATQRLANFLVHSSNNFGAILSSTNVGSNTY (ends and bridges not checked; also: uniformly [15N]-labelled) [U-[15N]-labelled human islet amyloid polypeptide (IAPP), recombinant, monomeric] | 61 | ~6000 | 
2 | B1 |  |  | 16 ± 2.4
